The record followed here is patent US20030175819A1 (BURNHAM INSTITUTE, published 2003).

*: point of attachment. RhodamineB = CCN(CC)c1ccc2c(-c3ccccc3C(=O)*)c3ccc(=[N+](CC)CC)cc-3oc2c1; Ahx = NCCCCCC(=O)O

For test [1], the target named is T1, GFP-HN (Green Fluorescent Protein fused to wild-type, full-length Humanin, cytosolic / nuclear-encoded form) (human, UniProt P42212 1-238 = GFP).
T1 construct: Humanin cDNA in the XhoI/HindIII sites of GFP-C1 (pEGFP-C1), so GFP is N-terminal; also called GFP-HN(N); GFP-Humanin
In words: co-immunoprecipitation from HEK293T cells (anti-GFP IP, anti-myc blot).

Test [2] addresses T2, purified recombinant full-length Bax protein (from E. coli BL21 harboring pTYB1-Bax) (human, UniProt Q07812 1-192).
T2 construct: also called recombinant Bax
In words: fluorescence polarization assay, various concentrations of purified recombinant Bax with 40 nM rhodamine-conjugated Humanin peptide. In general terms: Fluorescence polarisation rises when a labelled molecule tumbles more slowly, as on binding a larger partner.
Description: (§1) In this example, the in vitro binding assay is a fluorescence polarization assay (FPA). For this experiment, full-length Bax protein was produced in bacteria and purified. […] The extent of peptide binding was then monitored by measuring polarization of monochromatic light passed through the sample, where peptide binding to the bulkier protein slows the rate of peptide tumbling in solution, enhancing the polarization effect.
(§2) Fluorescence Polarization Assays were performed as follows. […] Fluorescence polarization was measured using an AnalystTM AD Assay Detection System (LJL Biosystem, Sunnyvale, Calif.).

Test [3] addresses Recombinant Bcl-XL protein (UniProt Q07817 1-211). In words: fluorescence polarization assay.
Description: as §1, §2

T2 sequence (Q07812 whole entry): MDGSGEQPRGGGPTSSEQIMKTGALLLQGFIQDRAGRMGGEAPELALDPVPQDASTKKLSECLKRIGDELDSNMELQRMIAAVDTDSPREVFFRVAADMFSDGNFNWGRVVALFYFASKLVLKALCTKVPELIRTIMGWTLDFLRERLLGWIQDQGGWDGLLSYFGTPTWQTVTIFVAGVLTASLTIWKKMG
Chain of Recombinant Bcl-XL protein (Q07817 1-211): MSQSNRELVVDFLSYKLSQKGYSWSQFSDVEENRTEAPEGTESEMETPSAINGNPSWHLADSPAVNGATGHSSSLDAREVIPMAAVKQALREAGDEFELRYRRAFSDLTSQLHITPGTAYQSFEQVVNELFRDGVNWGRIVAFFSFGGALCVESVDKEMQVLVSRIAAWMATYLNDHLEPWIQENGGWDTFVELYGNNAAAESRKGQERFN

B1: myc-tagged Bok (from pcDNA3-myc) (other, UniProt Q9UMX3 1-212, looked up, not shown: small tags and cut ends)
chain: MEVLRRSSVFAAEIMDAFDRSPTDKELVAQAKALGREYVHARLLRAGLSWSAPERAAPVPGRLAEVCAVLLRLGDELEMIRPSVYRNVARQLHISLQSEPVVTDAFLAVAGHIFSAGITWGKVVSLYAVAAGLAVDCVRQAQPAMVHALVDCLGEFVRKTLATWLRRRGGWTDVLKCVVSTDPGLRSHWLVAALCSFGRFLKAAFFVLLPER
B1: the binding result in test [1] was “no binding”.

B2: rhodamine-conjugated synthetic purified Humanin peptide (peptide)
peptide: {RhodamineB-Ahx}-MAPRGFSCLLLLTSEIDLPVKRRA-NH2
notes: also called rhodamine-HN; rhodamine-conjugated HN peptide
Turning to B2, in test [2], the dissociation constant (Kd) (usually the free concentration of one partner at which half of the binding sites on the other are occupied at equilibrium, for simple one-to-one binding) is roughly 2 nM. Besides, the binding result in test [3] is “no binding”.

B3: myc-tagged Bak (from pcDNA3-myc) (other, UniProt Q16611 1-211, looked up, not shown: small tags and cut ends)
chain: MASGQGPGPPRQECGEPALPSASEEQVAQDTEEVFRSYVFYRHQQEQEAEGVAAPADPEMVTLPLQPSSTMGQVGRQLAIIGDDINRRYDSEFQTMLQHLQPTAENAYEYFTKIATSLFESGINWGRVVALLGFGYRLALHVYQHGLTGFLGQVTRFVVDFMLHHCIARWIAQRGGWVAALNLGNGPILNVLVVLGVVLLGQFVVRRFFKS
As to B3, in test [1], the binding result was “no binding”.

B4: myc-tagged Bcl-B (from pcDNA3-myc) (other, UniProt Q9HD36 1-204, looked up, not shown: small tags and cut ends)
chain: MVDQLRERTTMADPLRERTELLLADYLGYCAREPGTPEPAPSTPEAAVLRSAAARLRQIHRSFFSAYLGYPGNRFELVALMADSVLSDSPGPTWGRVVTLVTFAGTLLERGPLVTARWKKWGFQPRLKEQEGDVARDCQRLVALLSSRLMGQHRAWLQAQGGWDGFCHFFRTPFPLAFWRKQLVQAFLSCLLTTAFIYLWTRLL
In the case of B4, the binding result in test [1] was “no binding”.
